Laboratory results reported in paper PMC5700991, “Cryo-EM structure of Saccharomyces cerevisiae target of rapamycin complex 2” (Nature Communications, 2017).

T1: Avo1 (S. cerevisiae, UniProt Q08236 1-1176)
T1 construct: Avo1 of S. cerevisiae (ortholog of hSin1); CRIM domain (residues 647-792 in the model; aa 638-786 in the methods), PH domain (aa 1076-1176); Poorly resolved in the map; only a homology model of the CRIM domain was fitted at a low contour level; source: endogenous, S. cerevisiae cell extract (Bit61-TAP strain lacking Bit2); purified as part of TORC2 on IgG-coated dynabeads, released with TEV …
T1 sequence (looked up): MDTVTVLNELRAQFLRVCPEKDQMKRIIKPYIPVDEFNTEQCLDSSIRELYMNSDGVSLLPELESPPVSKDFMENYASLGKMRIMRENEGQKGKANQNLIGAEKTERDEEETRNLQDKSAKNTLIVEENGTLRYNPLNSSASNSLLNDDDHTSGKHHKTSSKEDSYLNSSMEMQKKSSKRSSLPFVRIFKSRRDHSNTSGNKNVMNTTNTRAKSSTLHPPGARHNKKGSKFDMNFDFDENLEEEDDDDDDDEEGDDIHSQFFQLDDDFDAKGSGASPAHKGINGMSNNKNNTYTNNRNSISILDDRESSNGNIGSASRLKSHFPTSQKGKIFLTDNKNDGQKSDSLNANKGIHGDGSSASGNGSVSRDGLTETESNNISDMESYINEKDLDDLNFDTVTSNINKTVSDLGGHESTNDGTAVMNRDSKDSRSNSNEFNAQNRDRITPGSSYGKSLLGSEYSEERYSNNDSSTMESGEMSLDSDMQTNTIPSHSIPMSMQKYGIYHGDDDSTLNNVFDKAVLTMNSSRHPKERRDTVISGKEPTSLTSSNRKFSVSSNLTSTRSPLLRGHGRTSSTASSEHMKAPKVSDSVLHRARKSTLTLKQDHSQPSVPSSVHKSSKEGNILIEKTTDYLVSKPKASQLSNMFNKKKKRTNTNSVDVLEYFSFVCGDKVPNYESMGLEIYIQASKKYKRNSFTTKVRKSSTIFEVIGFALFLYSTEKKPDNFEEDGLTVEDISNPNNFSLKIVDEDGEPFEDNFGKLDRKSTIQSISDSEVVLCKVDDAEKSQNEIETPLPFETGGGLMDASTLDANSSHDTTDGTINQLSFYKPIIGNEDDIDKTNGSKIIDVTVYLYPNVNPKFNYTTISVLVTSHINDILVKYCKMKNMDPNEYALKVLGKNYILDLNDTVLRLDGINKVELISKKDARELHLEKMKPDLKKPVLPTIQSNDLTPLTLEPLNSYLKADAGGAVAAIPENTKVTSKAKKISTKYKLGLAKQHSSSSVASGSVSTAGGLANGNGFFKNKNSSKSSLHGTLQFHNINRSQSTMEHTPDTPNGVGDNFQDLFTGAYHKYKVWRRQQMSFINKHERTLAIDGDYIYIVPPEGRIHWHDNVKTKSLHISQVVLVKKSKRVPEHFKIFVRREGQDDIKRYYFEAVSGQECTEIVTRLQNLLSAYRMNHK

T2: Avo3 (S. cerevisiae, UniProt P40061 1-1430)
T2 construct: Avo3 of S. cerevisiae (ortholog of Rictor); armadillo-like helical domain in its middle part; Only 17 individual helices are modelled; they are not tied to residue numbers in the text; source: endogenous, S. cerevisiae cell extract (Bit61-TAP strain lacking Bit2); purified as part of TORC2 on IgG-coated dynabeads, released with TEV protease
T2 sequence (looked up): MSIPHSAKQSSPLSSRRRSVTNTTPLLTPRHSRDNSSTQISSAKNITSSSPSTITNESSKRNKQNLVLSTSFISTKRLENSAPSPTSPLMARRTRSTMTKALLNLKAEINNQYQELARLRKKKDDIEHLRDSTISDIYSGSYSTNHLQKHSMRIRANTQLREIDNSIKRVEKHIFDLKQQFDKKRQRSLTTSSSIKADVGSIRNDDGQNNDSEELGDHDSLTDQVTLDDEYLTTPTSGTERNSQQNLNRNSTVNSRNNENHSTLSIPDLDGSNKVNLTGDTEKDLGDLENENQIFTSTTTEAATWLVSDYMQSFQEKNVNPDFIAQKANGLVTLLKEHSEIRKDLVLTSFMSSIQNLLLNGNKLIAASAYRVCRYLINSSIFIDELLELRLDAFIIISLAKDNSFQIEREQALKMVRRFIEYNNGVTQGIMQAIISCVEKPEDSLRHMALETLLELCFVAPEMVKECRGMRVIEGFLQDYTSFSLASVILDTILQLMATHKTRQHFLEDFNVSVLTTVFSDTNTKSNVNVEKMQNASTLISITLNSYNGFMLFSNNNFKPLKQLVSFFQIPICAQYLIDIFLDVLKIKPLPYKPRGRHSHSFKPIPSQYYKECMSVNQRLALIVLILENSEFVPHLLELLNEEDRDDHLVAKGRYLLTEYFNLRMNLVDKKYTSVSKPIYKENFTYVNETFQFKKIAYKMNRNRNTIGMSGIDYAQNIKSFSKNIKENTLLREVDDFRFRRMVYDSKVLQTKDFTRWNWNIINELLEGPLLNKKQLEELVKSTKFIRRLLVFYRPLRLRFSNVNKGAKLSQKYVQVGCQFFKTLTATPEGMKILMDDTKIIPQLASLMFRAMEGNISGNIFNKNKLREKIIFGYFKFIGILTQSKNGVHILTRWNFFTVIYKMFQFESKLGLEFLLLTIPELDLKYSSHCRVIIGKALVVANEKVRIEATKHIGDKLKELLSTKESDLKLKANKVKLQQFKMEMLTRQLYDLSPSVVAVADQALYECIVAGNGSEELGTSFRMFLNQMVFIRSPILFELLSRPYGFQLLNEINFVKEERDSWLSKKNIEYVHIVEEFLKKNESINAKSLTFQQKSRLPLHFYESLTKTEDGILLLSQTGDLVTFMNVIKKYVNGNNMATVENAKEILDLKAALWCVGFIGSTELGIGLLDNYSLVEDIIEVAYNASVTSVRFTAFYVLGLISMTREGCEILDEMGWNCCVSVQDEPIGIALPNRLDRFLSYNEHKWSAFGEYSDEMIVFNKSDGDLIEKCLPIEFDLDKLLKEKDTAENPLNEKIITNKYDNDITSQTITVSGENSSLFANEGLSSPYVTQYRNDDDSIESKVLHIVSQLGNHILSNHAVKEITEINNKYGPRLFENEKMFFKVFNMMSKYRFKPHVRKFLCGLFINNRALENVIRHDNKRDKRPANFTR

B1: Avo2 (natural protein, S. cerevisiae, UniProt Q04749 1-426, looked up)
chain: MLKEPSVRLREAIIEGNLLIVKRLLRRNPDLLTNIDSENGWSSLHYASYHGRYLICVYLIQLGHDKHELIKTFKGNTCVHLALMKGHEQTLHLLLQQFPRFINHRGENGRAPIHIACMNDYYQCLSLLIGVGADLWVMDTNGDTPLHVCLEYGSISCMKMLLNEGEVSLDDNVRDKGNWKPIDVAQTFEVGNIYSKVLKEVKKKGPPLGAGKKPSSFRTPILNAKATFEDGPSPVLSMNSPYSLYSNNSPLPVLPRRISTHTTSGNGGNRRSSITNPVFNPRKPTLSTDSFSSSSNSSSRLRVNSINVKTPVGVSPKKELVSESVRHSATPTSPHNNIALINRYLLPNKSNDNVRGDSQTATINDDGGGGNGGDATIGMGLRKDPDDENENKYKIKVNNGEPRRRVSLLNIPISKLRNSNNTRAED
notes: Avo2 of S. cerevisiae; N-terminal five ankyrin repeats (residues 4-171; modelled aa 4-163); Only the ankyrin repeats are modelled in the map; source: endogenous, S. cerevisiae cell extract (Bit61-TAP strain lacking Bit2); purified as part of TORC2 on IgG-coated dynabeads, released with TEV protease
B2: Lst8 (natural protein, S. cerevisiae, UniProt P41318 1-303, looked up)
chain: MSVILVSAGYDHTIRFWEALTGVCSRTIQHSDSQVNRLEITNDKKLLATAGHQNVRLYDIRTTNPNPVASFEGHRGNVTSVSFQQDNRWMVTSSEDGTIKVWDVRSPSIPRNYKHNAPVNEVVIHPNQGELISCDRDGNIRIWDLGENQCTHQLTPEDDTSLQSLSMASDGSMLAAANTKGNCYVWEMPNHTDASHLKPVTKFRAHSTYITRILLSSDVKHLATCSADHTARVWSIDDDFKLETTLDGHQRWVWDCAFSADSAYLVTASSDHYVRLWDLSTREIVRQYGGHHKGAVCVALNDV
notes: Lst8 of S. cerevisiae, composed entirely of WD40 repeats (beta propeller); Two copies stand in the TORC2 complex; source: endogenous, S. cerevisiae cell extract (Bit61-TAP strain lacking Bit2); purified as part of TORC2 on IgG-coated dynabeads, released with TEV protease
B3: Bit61-TAP (natural protein, S. cerevisiae, UniProt P47041 1-543, looked up)
chain: MTAEDILLRERTSTTTQRPVNSEQYLNVQLATAPVKNFQTTSEISRQTLVDTSNDDVYSIKNLKGSRNPISPSVSNVGFQSIFHTVDHPRSKVSVASNHSLRSNDNASAATSKSGSSQIGESHSVDTVECSNNLSKKLSSDAISITQKSLHSTPSGRYMKGKASGFFNRRNRAHTTISSDPASFLTDSSTLHNSSHSFRNVIKNFFQNKSHRHIGQDAIEPAIPNSLSKFLHSSYGRHKSPSQFIHTNAGQLVDSGTSVYSLNVNPSGVNPNTIVEDPLSGTDPASPNPVSMLHDLLRNLPSLEANYKHFNSQELTTLTNNIWNIFCSNVAELFRTQRIWKLRAKIENFNEVLEFYCILKTDPRVTHSGMNRIISDLKEFLVSSLYNLENQIVFNYSNEDTINNALKRLGVIWRIFYQEVYYDLAAVLLPLDQSIREDGNSTVLKSGNESRTHINGNYSIGFLLLMCFRDSIVLPCYENFVNSNDGISKSFQLYIFNQEEESNVTETDKLTLLQCFGILSTIQSNDRNQRIIEELLAGIRMSI
notes: Bit61 of S. cerevisiae (ortholog of Protor), subunit of TORC2; The chain was captured by the protein A part of the TAP tag and set free with TEV protease; also called TAP-tagged Bit61; source: S. cerevisiae Bit61-TAP expressing strain lacking Bit2, cell extract; captured on IgG-coated dynabeads, released with TEV protease

Experiments:
Assay in all cases: cryo-EM structure; TORC2 purified from S. cerevisiae extract by protein-A affinity purification of Bit61-TAP (IgG-coated dynabeads; 50 mM HEPES pH 7.5, 0.2 mM CHAPS, 300 mM KCl, 0.5 mM DTT wash; TEV release); single-particle cryo-EM, C2 symmetry, 7.9 Å overall; homology models fitted
[1] = target: Tor2 (S. cerevisiae) (UniProt P32600)
[2] = target: T3, Tor2 (S. cerevisiae, UniProt P32600 1-2474); settings: both partners purified
T3 construct: Tor2, Ser/Thr protein kinase of S. cerevisiae TORC2; HEAT repeats (spiral, bridge), FAT, FRB, kinase and FATC domains; Two copies stand in the TORC2 complex; The model in the map is a homology model built on the K. marxianus Tor-Lst8 structure; also called Sc Tor2; S. cerevisiae Tor2; source: endogenous, S. cerevisiae cell extract (Bit61-TAP strain lacking Bit2); purified as part of TORC2 on …
T3 sequence (P32600 whole entry, the tested form may be a part): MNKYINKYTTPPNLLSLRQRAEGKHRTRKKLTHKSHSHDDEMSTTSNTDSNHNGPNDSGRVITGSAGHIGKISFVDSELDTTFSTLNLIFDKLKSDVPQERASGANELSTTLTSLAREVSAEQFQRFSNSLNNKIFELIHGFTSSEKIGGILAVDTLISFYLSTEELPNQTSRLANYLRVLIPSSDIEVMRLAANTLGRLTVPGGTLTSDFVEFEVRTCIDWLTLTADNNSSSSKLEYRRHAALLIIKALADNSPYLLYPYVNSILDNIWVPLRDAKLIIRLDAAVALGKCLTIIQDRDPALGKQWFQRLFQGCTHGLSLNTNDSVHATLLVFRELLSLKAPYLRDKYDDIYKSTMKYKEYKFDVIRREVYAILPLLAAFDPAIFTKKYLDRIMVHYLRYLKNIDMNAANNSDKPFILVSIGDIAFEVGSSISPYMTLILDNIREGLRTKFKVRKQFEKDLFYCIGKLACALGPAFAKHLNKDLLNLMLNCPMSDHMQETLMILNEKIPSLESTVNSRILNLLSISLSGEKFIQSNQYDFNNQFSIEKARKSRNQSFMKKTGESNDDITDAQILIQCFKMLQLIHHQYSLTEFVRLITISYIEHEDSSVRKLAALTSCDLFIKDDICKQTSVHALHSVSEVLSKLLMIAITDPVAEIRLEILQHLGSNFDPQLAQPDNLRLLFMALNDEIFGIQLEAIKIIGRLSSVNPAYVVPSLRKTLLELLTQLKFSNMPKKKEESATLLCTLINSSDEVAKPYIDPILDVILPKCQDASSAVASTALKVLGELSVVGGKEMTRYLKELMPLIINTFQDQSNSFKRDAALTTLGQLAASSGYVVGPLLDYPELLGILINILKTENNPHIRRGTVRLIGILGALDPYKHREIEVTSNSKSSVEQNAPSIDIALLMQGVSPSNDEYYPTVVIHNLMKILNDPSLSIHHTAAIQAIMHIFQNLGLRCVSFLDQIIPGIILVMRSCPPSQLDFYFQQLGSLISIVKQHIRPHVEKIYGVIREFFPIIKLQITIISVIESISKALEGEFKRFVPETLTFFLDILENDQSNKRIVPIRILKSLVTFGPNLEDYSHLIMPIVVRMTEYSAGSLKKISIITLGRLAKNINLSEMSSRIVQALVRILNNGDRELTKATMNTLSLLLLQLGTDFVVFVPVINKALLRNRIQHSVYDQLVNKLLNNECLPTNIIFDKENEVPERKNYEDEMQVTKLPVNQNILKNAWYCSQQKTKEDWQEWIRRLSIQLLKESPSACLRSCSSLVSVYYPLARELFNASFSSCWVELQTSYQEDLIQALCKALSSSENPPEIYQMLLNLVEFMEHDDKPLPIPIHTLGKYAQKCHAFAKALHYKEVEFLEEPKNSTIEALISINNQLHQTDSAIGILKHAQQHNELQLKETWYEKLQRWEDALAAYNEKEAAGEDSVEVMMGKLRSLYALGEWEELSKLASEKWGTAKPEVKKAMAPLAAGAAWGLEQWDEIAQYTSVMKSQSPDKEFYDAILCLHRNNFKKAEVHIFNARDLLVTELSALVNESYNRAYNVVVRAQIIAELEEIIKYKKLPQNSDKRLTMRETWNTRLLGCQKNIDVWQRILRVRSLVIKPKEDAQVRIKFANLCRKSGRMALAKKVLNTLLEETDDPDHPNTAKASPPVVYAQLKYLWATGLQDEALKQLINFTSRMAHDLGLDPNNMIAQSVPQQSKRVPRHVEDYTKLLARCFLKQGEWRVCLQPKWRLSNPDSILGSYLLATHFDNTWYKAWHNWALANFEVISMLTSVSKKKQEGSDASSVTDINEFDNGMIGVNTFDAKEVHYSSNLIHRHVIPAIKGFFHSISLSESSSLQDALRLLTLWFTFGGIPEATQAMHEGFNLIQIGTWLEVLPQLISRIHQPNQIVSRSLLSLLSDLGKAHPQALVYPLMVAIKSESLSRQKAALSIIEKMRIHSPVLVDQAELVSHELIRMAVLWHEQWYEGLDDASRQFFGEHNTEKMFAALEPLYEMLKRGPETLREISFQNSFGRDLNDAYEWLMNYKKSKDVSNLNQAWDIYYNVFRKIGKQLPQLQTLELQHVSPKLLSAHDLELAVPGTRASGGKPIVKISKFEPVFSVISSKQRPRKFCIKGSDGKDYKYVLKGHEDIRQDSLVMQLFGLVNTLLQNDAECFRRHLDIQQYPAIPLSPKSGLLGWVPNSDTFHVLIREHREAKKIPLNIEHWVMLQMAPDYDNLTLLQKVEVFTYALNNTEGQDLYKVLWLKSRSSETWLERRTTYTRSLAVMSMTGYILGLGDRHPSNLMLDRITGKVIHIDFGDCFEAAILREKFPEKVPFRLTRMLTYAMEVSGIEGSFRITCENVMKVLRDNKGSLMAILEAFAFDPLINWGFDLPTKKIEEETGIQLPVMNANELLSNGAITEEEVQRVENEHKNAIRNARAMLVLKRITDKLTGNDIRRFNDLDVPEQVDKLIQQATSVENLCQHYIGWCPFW

[3] = target: B3; settings: both partners purified
[4] = target: T1, Avo1; settings: both partners purified
[5] = target: T2, Avo3; settings: both partners purified

Molecule	stoichiometry N [1]	binding result [2]	binding result [3]	binding result [4]	binding result [5]
Tor2, P32600 1-2474	2	–	–	–	–
B1	–	binds	binds	–	–
B2	–	binds	binds	binds	–
B3	–	binds	–	binds	binds
